Assay results from patent US20240132589A1 (ONCORESPONSE, published 2024).
Each block holds one binder with its values, some of them ahead of it.

What was measured:
[1] = biological target: T1, Human LILRB2 on primary human myeloid cells (human, UniProt Q8N423 22-597); assay: flow cytometry, AF647-conjugated antibody on human M2c macrophages (10 subjects), average
T1 construct: whole, on cells; the cell type is named under assay; also called LILRB2 on monocytes, M0 and M2c macrophages, myeloid dendritic cells, neutrophils
Protocol: (§1) Anti-LILRB2 antibodies were evaluated for their ability to bind myeloid cell subsets expressing LILRB2, including monocytes, M0 macrophages, and M2c macrophages. M2c macrophages are used as a surrogate for tumor-associated macrophages, a suppressive macrophage commonly found in the tumor microenvironment. Frozen monocytes were removed from storage in vapor phase liquid nitrogen and thawed by gentle swirling in a water bath at 37° C., then resuspended in X-VIVO™ 15 media with 10% FBS. PBMC were placed in a 15 mL conical tube and centrifuged at 300×g for 5 minutes, then supernatant was removed. Cells were resuspended in Assay Medium (X-VIVO™ 15+10% FBS) at a cell density of 2.5×10⁵ cells/mL. Cells were plated into 96-well flat bottom plates at 100 μL/well (25K cells/well). M0 and M2c macrophages were generated as described in Example 10 and collected from flasks by incubation for 15 min at RT in Macrophage Detachment Solution DXF, then removed from the flask into X-VIVO™ 15 medium. Following centrifugation, the cells were resuspended in FACS Blocking Buffer D (FACS Buffer+10% FBS+0.5 mg/mL human IgG1) then incubated at 4° C. for 30 minutes. […]

[2] = biological target: T1, Human LILRB2 on primary human myeloid …; assay: flow cytometry, AF647-conjugated antibody on human monocytes (15 subjects), average
Protocol: as §1

[3] = biological target: T2, Recombinant human LILRB2 protein (ELISA antigen) (human, UniProt Q8N423 22-460); assay: ELISA, plate-coated recombinant human LILRB2
T2 construct: also called LILRB2-His; recombinant LILRB2
Protocol: To confirm binding to human and cynomolgus LILRB2, antibodies in supernatants were evaluated for binding by enzyme-linked immunosorbent assay (ELISA). Recombinant LILRB2 proteins (human: SEQ ID NO: 48; cynomolgus) were diluted in PBS to 2 μg/mL and added to 384-well high-binding ELISA plates (Greiner Bio-One Microlon™) at 25 μL/well and incubated at 4° C. overnight. The plates were washed three times with Wash Buffer (0.05% Tween® 20 in PBS), using a microplate washer and then blocked with 90 μL/well of ELISA Blocking Buffer A (1% BSA in PBS) for 1 hour at room temperature (RT). After blocking, 25 μL/well of LILRB2 antibodies or isotype control were added to the plates and incubated for 1 hour at RT. After primary antibody binding, plates were washed three times with Wash Buffer using a microplate washer. Secondary detection antibody (HRP-goat anti-rabbit Fab fragment) was diluted to 1:3000 in assay diluent (1% BSA in PBS) and 25 μL/well was added to plates and incubated at RT protected from light for 1 hour. Following incubation, plates were washed four times with Wash Buffer, using a microplate washer. […] After development, the reaction was stopped by addition of 25 μL/well of 0.3 M HCl, and plates were read using an EnVision (Perkin Elmer) microplate reader at 450 nm. EC₅₀ values were calculated based on log concentration of the primary antibodies at optical density at 450 nm.

LILRB2-Fc protein = biological target: T3, LILRB2-Fc protein (human, UniProt Q8N423 22-460, limits assumed); assay: blocking ELISA: LILRB2-Fc pre-incubated with antibody titration, binding to coated monomer HLA-G
T3 construct: also called human LILRB2-Fc; not shown: Fc part
Protocol: Tumor-associated HLA-G is an HLA Class I ligand for LILRB2. Binding of HLA-G to LILRB2 induces an immune suppressive signal in LILRB2 expressing myeloid cells. To determine if the anti-LILRB2 antibodies block the HLA-G-LILRB2 interaction and prevent the induction of an inhibitory signal, blocking ELISA assays in a dose titration were performed. 384-well plates were coated with monomer HLA-G (Fred Hutchinson Cancer Research Center, No. bHLA-G) at a concentration of 5 μg/mL, diluted in PBS, then plates were incubated at RT for 1 hour. Plates were rinsed with Wash Buffer three times, then blocked with Blocking Buffer A for 30 minutes at RT. During blocking incubation step, LILRB2-Fc protein and antibody titrations were prepared in Blocking Buffer A. LILRB2-Fc protein was then incubated with antibody titrations for 30 minutes at RT to allow for binding prior to addition onto plate. Plates were rinsed three times with Wash Buffer, then 25 μL of protein/antibody mixture was added per well and incubated for 1 hour at RT. Following antibody incubation, plates were washed three times with Wash Buffer. Anti-human IgG Fc-HRP secondary antibody was diluted and added at 25 μL/well. Plates were incubated in the dark for 1 hour at RT. Following secondary antibody incubation, plates were washed four times with Wash Buffer. […] Absorbance was read at 450 nm using the Envision. […]

T1 sequence (Q8N423 22-597): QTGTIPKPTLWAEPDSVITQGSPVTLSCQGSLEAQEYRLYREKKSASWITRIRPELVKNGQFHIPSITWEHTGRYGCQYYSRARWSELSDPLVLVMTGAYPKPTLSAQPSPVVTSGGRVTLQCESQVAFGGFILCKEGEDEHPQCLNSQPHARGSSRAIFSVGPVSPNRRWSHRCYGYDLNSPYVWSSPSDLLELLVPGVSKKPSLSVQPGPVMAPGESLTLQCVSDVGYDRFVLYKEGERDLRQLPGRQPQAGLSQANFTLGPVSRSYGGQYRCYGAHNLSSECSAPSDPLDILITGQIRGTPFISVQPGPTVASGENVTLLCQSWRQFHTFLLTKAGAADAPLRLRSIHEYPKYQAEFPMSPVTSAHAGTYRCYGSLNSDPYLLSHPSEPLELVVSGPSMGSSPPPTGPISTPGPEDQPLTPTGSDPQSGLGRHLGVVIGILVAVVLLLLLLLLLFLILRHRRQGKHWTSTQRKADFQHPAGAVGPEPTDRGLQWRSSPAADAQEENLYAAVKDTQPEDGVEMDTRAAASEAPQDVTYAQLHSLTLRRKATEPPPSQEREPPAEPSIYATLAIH
T3 sequence (Q8N423 22-460 limits assumed): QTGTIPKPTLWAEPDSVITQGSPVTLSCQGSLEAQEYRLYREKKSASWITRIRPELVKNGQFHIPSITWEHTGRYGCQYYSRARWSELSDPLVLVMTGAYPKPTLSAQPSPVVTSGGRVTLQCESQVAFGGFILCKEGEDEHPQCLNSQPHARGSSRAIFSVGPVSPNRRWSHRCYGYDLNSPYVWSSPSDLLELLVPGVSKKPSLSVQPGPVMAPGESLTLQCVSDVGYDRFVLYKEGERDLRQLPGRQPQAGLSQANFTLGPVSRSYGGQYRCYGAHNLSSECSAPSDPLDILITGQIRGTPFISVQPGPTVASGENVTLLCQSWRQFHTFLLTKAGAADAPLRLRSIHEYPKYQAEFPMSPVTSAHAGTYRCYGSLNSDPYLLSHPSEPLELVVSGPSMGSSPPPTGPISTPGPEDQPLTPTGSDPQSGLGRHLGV
T2 sequence (Q8N423 other isoform, or with tags, fused parts or gaps limits assumed): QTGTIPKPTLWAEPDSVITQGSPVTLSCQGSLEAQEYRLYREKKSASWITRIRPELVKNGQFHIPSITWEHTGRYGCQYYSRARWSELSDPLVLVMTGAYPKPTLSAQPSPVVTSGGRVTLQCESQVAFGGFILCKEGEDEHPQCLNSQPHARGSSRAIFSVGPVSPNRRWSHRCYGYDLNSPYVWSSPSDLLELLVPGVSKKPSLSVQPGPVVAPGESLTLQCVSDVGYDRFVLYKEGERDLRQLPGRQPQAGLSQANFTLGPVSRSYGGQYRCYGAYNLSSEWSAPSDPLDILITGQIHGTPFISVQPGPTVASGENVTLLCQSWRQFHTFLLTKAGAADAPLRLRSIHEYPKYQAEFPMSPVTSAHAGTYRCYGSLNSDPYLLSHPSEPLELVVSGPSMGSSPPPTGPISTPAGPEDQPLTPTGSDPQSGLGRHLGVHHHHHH

EC50 [1]: 0.0243 µg/mL
EC50 [2]: 0.0356 µg/mL
B1: B2H1-55 (antibody, V domains shown)
VH: EVQLLESGGGLVQPGTSLTLSCAASGFSLSTYAMSWVRQAPGKGLEWIGWIYNDGSTYYAAWAKGRFTISKDTSKTTLYLQITSLRAEDTATYFCAREGDYIGYFNIWGQGTLVTVSS
VL: DVVMTQTPSSVSAALGGTVTIKCQASQSIGSNLAWYQLKPGQRPKLLIYAAATLASGGSSRFKGSGSGTDFTLTISSLEPADAATYYCQSYVSGSSDVAFGGGTEVVVK
notes: Humanized variant, human IgG1 / kappa; also called humanized variant B2H1-55; humanized LILRB2 antibody B2H1-55

EC50 [3]: 0.00381 µg/mL
B2: B2A-IgG1 (antibody)
heavy: not shown
light: DVVMTQTPSSVSAALGGTVTIKCQASQSIGSNLAWYQLKPGQRPKLLIYAAATLASGGSSRFKGSGSGTDFTLTISDLECADAATYYCQSYVSGSSDVAFGGGTEVVVKRTVAAPSVFIFPPSDEQLKSGTASVVCLLNNFYPREAKVQWKVDNALQSGNSQESVTEQDSKDSTYSLSSTLTLSKADYEKHKVYACEVTHQGLSSPVTKSFNRGEC
notes: Rabbit variable regions on human IgG1 / kappa constant regions; AF647-conjugated in some flow assays; also called B2A-IgG1 chimera; anti-LILRB2 B2A-IgG1

IC50 (LILRB2-Fc protein): 0.066 µg/mL
B3: B2A-IgG4 (antibody)
heavy: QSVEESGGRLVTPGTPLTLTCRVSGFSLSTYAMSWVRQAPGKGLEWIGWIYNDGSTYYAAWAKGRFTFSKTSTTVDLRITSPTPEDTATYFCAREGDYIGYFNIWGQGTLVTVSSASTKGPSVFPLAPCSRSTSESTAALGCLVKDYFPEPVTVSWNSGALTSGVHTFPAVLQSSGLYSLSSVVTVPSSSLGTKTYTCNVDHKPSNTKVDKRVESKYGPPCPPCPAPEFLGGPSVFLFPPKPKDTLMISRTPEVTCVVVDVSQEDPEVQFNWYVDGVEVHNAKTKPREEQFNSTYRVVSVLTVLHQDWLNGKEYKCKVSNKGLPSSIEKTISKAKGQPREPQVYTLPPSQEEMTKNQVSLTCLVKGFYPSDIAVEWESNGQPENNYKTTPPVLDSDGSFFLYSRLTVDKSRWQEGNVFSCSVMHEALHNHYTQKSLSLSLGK
light: DVVMTQTPSSVSAALGGTVTIKCQASQSIGSNLAWYQLKPGQRPKLLIYAAATLASGGSSRFKGSGSGTDFTLTISDLECADAATYYCQSYVSGSSDVAFGGGTEVVVKRTVAAPSVFIFPPSDEQLKSGTASVVCLLNNFYPREAKVQWKVDNALQSGNSQESVTEQDSKDSTYSLSSTLTLSKADYEKHKVYACEVTHQGLSSPVTKSFNRGEC
notes: Rabbit variable regions on human IgG4 / kappa constant regions; also called B2A-IgG4 chimera; Parent B2A-IgG4
